Key:
mouse CRHR2 = assay: CRH-induced luciferase reporter blocking assay, CHO-CRE-mCRHR2 cells; assay type: cell-based
Procedure: To create CHO-CRE-hCRHR1, -hCRHR2, -mCRHR1, and -mCRHR2 reporter cell lines, pcDNA3.1-hCRHR1, -hCRHR2, -mCRHR1, and -mCRHR2 were introduced into CHO-CRE cells established above by electroporation as described above. Selection antibiotics hygromycin at 500 μg/ml and G418 at 1,000 μg/ml were employed. Individual established stable cell lines were characterized by both CRH and forskolin stimulation. […]
(§1) Cells were digested by trypsin-EDTA (Life technologies, Cat #:12604-013), centrifuged at 1,000 rpm for 5 min, resuspended in growth medium, counted using a cell counter, seeded at a concentration of 5,000 cells per 100 μl in 96-well flat plates, and incubated overnight. 50 μl of 4× serially diluted antibodies was added (8 points, 1/4 diluted by growth medium) to plates containing CHO-CRE-hCRHR1 cells, and 50 μl of 4×CRH (4× is 2 nM, final is 0.5 nM) was added. Similarly, 4×CRH (4× is 0.4 nM, final is 0.1 nM) was added to CHO-CRE-hCRHR2 cells and CHO-CRE-mCRHR1 cells, and 4×CRH (4× is 20 nM, final is 5 nM) was added to CHO-CRE-mCRHR2 cells. Next, plates were incubated 4-6 hours at 37° C. in a CO2 incubator. 60 μl of culture medium was removed, to which was added 60 μl of Bio-Glo luciferase, followed by incubation for 10 min at RT. Plates were read in a luciferase plate reader (EnVision, PerkinElmer).

human CRHR2 = assay: CRH-induced luciferase reporter blocking assay, CHO-CRE-hCRHR2 cells; assay type: cell-based
Procedure: To create CHO-CRE-hCRHR1, -hCRHR2, -mCRHR1, and -mCRHR2 reporter cell lines, pcDNA3.1-hCRHR1, -hCRHR2, -mCRHR1, and -mCRHR2 were introduced into CHO-CRE cells established above by electroporation as described above. Selection antibiotics hygromycin at 500 μg/ml and G418 at 1,000 μg/ml were employed. Individual established stable cell lines were characterized by both CRH and forskolin stimulation.
Activated GPCR proteins increase production of the intracellular cAMP. CHO-CRE-human CRHR1 stable clone 11 was generated by introduction of pcDNA3.1-human CRHR1 under the selection of G418 and hygromycin. Human CRHR1 expression in CHO-CRE-hCRHR1 Clone 11 was confirmed by flow cytometry (data not shown). To further validate that the cell line was functional, CHO-CRE-hCRHR1 Clone 11 cells were treated with forskolin and CRH peptide. […] Subsequently CHO-CRE-hCRHR2 Clone 32, -mCRHR1 Clone 22, and -mCRHR2 Clone 8 cell lines were established using similar methodology and validated with CRH treatment (data not shown).
Blocking CRHR1 by small molecules or neutralization of CRH peptide can reduce luciferase expression if the CRH-CRHR1 system works in CHO-CRE-hCRHR1 cells. Antalarmin, a small molecule CRHR1 antagonist, blocked CRH-mediated luciferase expression in CHO-CRE-hCRHR1 Clone 11 (data not shown). Furthermore, sheep anti-CRH polyclonal antibody reduced CRH-mediated luciferase expression in these cells (data not shown). Likewise, sheep anti-CRH polyclonal antibody blocked CRH-mediated luciferase expression in CHO-CRE-hCRHR2, CHO-CRE-mCRHR1, and CHO-CRE-mCRHR2 cells (data not shown).
as §1

[1] = CHO-CRE-hCRHR2 cells, 0.1 nM CRH

IC50 (mouse CRHR2; CHO-CRE-mCRHR2 cells, 5 nM CRH)	IC50 (human CRHR2; [1])	IC50 (mouse CRHR2; Table 9, mCrhr2)	IC50 (human CRHR2; Table 9, hCRHR2)	Molecule
0.82 nM	0.293 nM	–	–	PR302341-8: humanized variant of Series 10 mAb PR302341; VH SEQ ID NO: 281, VL SEQ ID NO: 340 (antibody, V domains shown, PR302341-10 VH, PR302341-11 VH, PR302341-12 VH, PR302341-14 VH,PR302341-67 VH, PR302341-68 VH, PR302341-69 VH, PR302341-7 VH,PR302341-8 VH, PR302341-9 VH; PR302341-19 VL, PR302341-20 VL, PR302341-21 VL, PR302341-22 VL,PR302341-23 VL, PR302341-28 VL, PR302341-29 VL, PR302341-2 VL,PR302341-41 VL, PR302341-55 VL, PR302341-56 VL, PR302341-57 VL,PR302341-) VH: QVQLVQSGAEVKKPGASVKVSCKASGYTFTDYFMKWVRQAPGQGLEWMGVINPNNGDIFYNQKFKGRVTMTVDKSTSTAYMELSSLRSEDTAVYYCARGTDRALFAYWGQGTLVTVSS VL: DVVMTQSPLSLPVTLGQPASISCRSGQSIVHSDGNTYLEWYQQRPGQSPRLLIYKVSNRFSGVPDRFSGSGSGTDFTLKISRVEAEDLGVYYCFQGSHIPWTFGGGTKVEIK
0.673 nM	0.178 nM	–	–	PR302341-19: humanized variant of Series 10 mAb PR302341; VH SEQ ID NO: 282, VL SEQ ID NO: 340 (antibody, V domains shown, PR302341-13 VH, PR302341-19 VH; PR302341-19 VL, PR302341-20 VL, PR302341-21 VL, PR302341-22 VL,PR302341-23 VL, PR302341-28 VL, PR302341-29 VL, PR302341-2 VL,PR302341-41 VL, PR302341-55 VL, PR302341-56 VL, PR302341-57 VL,PR302341-) VH: QVQLVQSGAEVKKPGASVKVSCKASGYTFTDYFMKWVRQAPGQGLEWMGVINPNNGDIFYNQKFKGRVTMTRDTSTSTVYMELSSLRSEDTAVYYCARGTDRALFAYWGQGTLVTVSS VL: DVVMTQSPLSLPVTLGQPASISCRSGQSIVHSDGNTYLEWYQQRPGQSPRLLIYKVSNRFSGVPDRFSGSGSGTDFTLKISRVEAEDLGVYYCFQGSHIPWTFGGGTKVEIK
1.22 nM	0.143 nM	1.44 nM	0.83 nM	PR302341-10: humanized variant of Series 10 mAb PR302341; VH SEQ ID NO: 281, VL SEQ ID NO: 336 (antibody, V domains shown, PR302341-10 VH, PR302341-11 VH, PR302341-12 VH, PR302341-14 VH,PR302341-67 VH, PR302341-68 VH, PR302341-69 VH, PR302341-7 VH,PR302341-8 VH, PR302341-9 VH; PR302341-10 VL, PR302341-24 VL, PR302341-26 VL, PR302341-43 VL,PR302341-44 VL, PR302341-45 VL, PR302341-4 VL) VH: QVQLVQSGAEVKKPGASVKVSCKASGYTFTDYFMKWVRQAPGQGLEWMGVINPNNGDIFYNQKFKGRVTMTVDKSTSTAYMELSSLRSEDTAVYYCARGTDRALFAYWGQGTLVTVSS VL: DVVMTQTPLSSPVTLGQPASISCRSGQSIVHSDGNTYLEWYQQRPGQPPRLLIYKVSNRFSGVPDRFSGSGAGTDFTLKISRVEAEDLGVYYCFQGSHIPWTFGGGTKVEIK
8.08 nM	5.75 nM	–	–	PR302029: humanized variant of Series 5 mAb PR301777; VH SEQ ID NO: 255, VL SEQ ID NO: 310 (antibody, V domains shown, PR302029 VH, PR302031 VH, PR302034 VH; PR302029 VL, PR302036 VL, PR302043 VL, PR302050 VL, PR302064 VL) VH: EVQLVESGGGLVQPGGSLRLSCAASGFTFSNYWMNWVRQAPGKGLEWVGEIRLKSNNYATHYAESVKGRFTISRDDSKNSLYLQMNSLKTEDTAVYYCTVGTLVYWGQGTLVTVSS VL: DIVLTQSPDSLAVSLGERATINCRASQSVSTSTYNYMHWFQQKPGQPPKLLIKFASNLESGVPDRFSGSGSGTDFTLTISSLQAEDTAVYYCQHSWEIPYTFGQGTKLEIK
6.32 nM	13.9 nM	–	–	PR302048: humanized variant of Series 5 mAb PR301777; VH SEQ ID NO: 257, VL SEQ ID NO: 312 (antibody, V domains shown, PR302043 VH, PR302045 VH, PR302048 VH; PR302034 VL, PR302041 VL, PR302048 VL, PR302055 VL, PR302069 VL) VH: EVQLVESGGGLVQPGGSLKLSCAASGFTFSNYWMNWVRQASGKGLEWVGEIRLKSNNYATHYAESVKGRFTISRDDSKNTAYLQMNSLKTEDTAVYYCTRGTLVYWGQGTLVTVSS VL: DIQLTQSPSSLSASVGDRVTITCRASQSVSTSTYNYMHWFQQKPGKAPKLLIKFASNLESGVPSRFSGSGSGTDFTLTISSLQPEDTATYYCQHSWEIPYTFGQGTKLEIK
5.42 nM	2.21 nM	–	–	PR302036: humanized variant of Series 5 mAb PR301777; VH SEQ ID NO: 256, VL SEQ ID NO: 310 (antibody, V domains shown, PR302036 VH, PR302038 VH, PR302041 VH; PR302029 VL, PR302036 VL, PR302043 VL, PR302050 VL, PR302064 VL) VH: EMQLVESGGGLVQPGGSLRLSCAASGFTFSNYWMNWVRQAPGKGLEWVAEIRLKSNNYATHYAESVKGRFTISRDDSKSSVYLQMNSLKTEDTAVYYCTVGTLVYWGQGTLVTVSS VL: DIVLTQSPDSLAVSLGERATINCRASQSVSTSTYNYMHWFQQKPGQPPKLLIKFASNLESGVPDRFSGSGSGTDFTLTISSLQAEDTAVYYCQHSWEIPYTFGQGTKLEIK
12.4 nM	4.92 nM	–	–	PR302041: humanized variant of Series 5 mAb PR301777; VH SEQ ID NO: 256, VL SEQ ID NO: 312 (antibody, V domains shown, PR302036 VH, PR302038 VH, PR302041 VH; PR302034 VL, PR302041 VL, PR302048 VL, PR302055 VL, PR302069 VL) VH: EMQLVESGGGLVQPGGSLRLSCAASGFTFSNYWMNWVRQAPGKGLEWVAEIRLKSNNYATHYAESVKGRFTISRDDSKSSVYLQMNSLKTEDTAVYYCTVGTLVYWGQGTLVTVSS VL: DIQLTQSPSSLSASVGDRVTITCRASQSVSTSTYNYMHWFQQKPGKAPKLLIKFASNLESGVPSRFSGSGSGTDFTLTISSLQPEDTATYYCQHSWEIPYTFGQGTKLEIK
29.3 nM	10.2 nM	–	–	PR302034: humanized variant of Series 5 mAb PR301777; VH SEQ ID NO: 255, VL SEQ ID NO: 312 (antibody, V domains shown, PR302029 VH, PR302031 VH, PR302034 VH; PR302034 VL, PR302041 VL, PR302048 VL, PR302055 VL, PR302069 VL) VH: EVQLVESGGGLVQPGGSLRLSCAASGFTFSNYWMNWVRQAPGKGLEWVGEIRLKSNNYATHYAESVKGRFTISRDDSKNSLYLQMNSLKTEDTAVYYCTVGTLVYWGQGTLVTVSS VL: DIQLTQSPSSLSASVGDRVTITCRASQSVSTSTYNYMHWFQQKPGKAPKLLIKFASNLESGVPSRFSGSGSGTDFTLTISSLQPEDTATYYCQHSWEIPYTFGQGTKLEIK
6.17 nM	5.25 nM	–	–	PR302043: humanized variant of Series 5 mAb PR301777; VH SEQ ID NO: 257, VL SEQ ID NO: 310 (antibody, V domains shown, PR302043 VH, PR302045 VH, PR302048 VH; PR302029 VL, PR302036 VL, PR302043 VL, PR302050 VL, PR302064 VL) VH: EVQLVESGGGLVQPGGSLKLSCAASGFTFSNYWMNWVRQASGKGLEWVGEIRLKSNNYATHYAESVKGRFTISRDDSKNTAYLQMNSLKTEDTAVYYCTRGTLVYWGQGTLVTVSS VL: DIVLTQSPDSLAVSLGERATINCRASQSVSTSTYNYMHWFQQKPGQPPKLLIKFASNLESGVPDRFSGSGSGTDFTLTISSLQAEDTAVYYCQHSWEIPYTFGQGTKLEIK

Source: patent publication US20260042834A1, “ANTI-CORTICOTROPIN-RELEASING HORMONE ANTIBODIES AND POLYCYSTIC OVARY SYNDROME” (HBM ALPHA THERAPEUTICS, INC., priority 2022, published 2026)
